Measurements: patent US7169891B2, “Human pellino polypeptides” (Immunex Corporation, priority 2000, dated 2007)
Substitutions are numbered along the chain they refer to. Names may count otherwise. “Also recorded” adds a separate entry of the source. Non-standard residues stand in square brackets, D forms with d. Residues, ends and D or L forms follow the SMILES beside them. *: point of attachment. Nle = CCCC[C@H](N)C(=O)O; Cbz = O=C(OCc1ccccc1)*; CH2F = FC*

B1: dN180-FLAG: murine Pellino-1-FLAG, N-terminal 180 amino acids deleted (protein, UniProt Q8C669 181-418, looked up, fragment)
chain: DGLTTNGVLVMHPRNGFTEDSKPGIWREISVCGNVFSLRETRSAQQRGKMVEIETNQLQDGSLIDLCGATLLWRTAEGLSHTPTVKHLEALRQEINAARPQCPVGFNTLAFPSMKRKDVVDEKQPWVYLNCGHVHGYHNWGNKEERDGKDRECPMCRSVGPYVPLWLGCEAGFYVDAGPPTHAFSPCGHVCSEKTTAYWSQIPLPHGTHTFHAACPFCAHQLAGEQGYIRLIFQGPLD
modifications: FLAG tag
notes: murine Pellino-1-FLAG, N-terminal 180 amino acids deleted
B2: 1–350: murine Pellino-1, only amino acids 1–350 present (protein, UniProt Q8C669 1-350, looked up, fragment)
chain: MFSPDQENHPSKAPVKYGELIVLGYNGSLPNGDRGRRKSRFALFKRPKANGVKPSTVHIACTPQAAKAISNKDQHSISYTLSRAQTVVVEYTHDSNTDMFQIGRSTESPIDFVVTDTVPGSQSNSDTQSVQSTISRFACRIICERSPPFTARIYAAGFDSSKNIFLGEKAAKWKTSDGQMDGLTTNGVLVMHPRNGFTEDSKPGIWREISVCGNVFSLRETRSAQQRGKMVEIETNQLQDGSLIDLCGATLLWRTAEGLSHTPTVKHLEALRQEINAARPQCPVGFNTLAFPSMKRKDVVDEKQPWVYLNCGHVHGYHNWGNKEERDGKDRECPMCRSVGPYVPLWLGCE
B3: Y154A-FLAG: murine Pellino-1-FLAG, Tyr to Ala substitution at residue 154 (protein, UniProt Q8C669 1-418, looked up, variant Y154A)
E3 ubiquitin-protein ligase …: MFSPDQENHPSKAPVKYGELIVLGYNGSLPNGDRGRRKSRFALFKRPKANGVKPSTVHIACTPQAAKAISNKDQHSISYTLSRAQTVVVEYTHDSNTDMFQIGRSTESPIDFVVTDTVPGSQSNSDTQSVQSTISRFACRIICERSPPFTARIAAAGFDSSKNIFLGEKAAKWKTSDGQMDGLTTNGVLVMHPRNGFTEDSKPGIWREISVCGNVFSLRETRSAQQRGKMVEIETNQLQDGSLIDLCGATLLWRTAEGLSHTPTVKHLEALRQEINAARPQCPVGFNTLAFPSMKRKDVVDEKQPWVYLNCGHVHGYHNWGNKEERDGKDRECPMCRSVGPYVPLWLGCEAGFYVDAGPPTHAFSPCGHVCSEKTTAYWSQIPLPHGTHTFHAACPFCAHQLAGEQGYIRLIFQGPLD
modifications: FLAG tag
B4: F158A-FLAG: murine Pellino-1-FLAG, Phe to Ala substitution at residue 158 (protein, UniProt Q8C669 1-418, looked up, variant F158A)
E3 ubiquitin-protein ligase …: B3 E3 ubiquitin-protein ligase … with A154Y, F158A
modifications: FLAG tag
B5: F165L-FLAG: murine Pellino-1-FLAG, Phe to Leu substitution at residue 165 (protein, UniProt Q8C669 1-418, looked up, variant F165L)
E3 ubiquitin-protein ligase …: B3 E3 ubiquitin-protein ligase … with A154Y, F165L
modifications: FLAG tag
B6: 1–250: murine Pellino-1, only amino acids 1–250 present (protein, UniProt Q8C669 1-250, looked up, fragment)
chain: MFSPDQENHPSKAPVKYGELIVLGYNGSLPNGDRGRRKSRFALFKRPKANGVKPSTVHIACTPQAAKAISNKDQHSISYTLSRAQTVVVEYTHDSNTDMFQIGRSTESPIDFVVTDTVPGSQSNSDTQSVQSTISRFACRIICERSPPFTARIYAAGFDSSKNIFLGEKAAKWKTSDGQMDGLTTNGVLVMHPRNGFTEDSKPGIWREISVCGNVFSLRETRSAQQRGKMVEIETNQLQDGSLIDLCGAT
B7: dN50-FLAG: murine Pellino-1-FLAG, N-terminal 50 amino acids deleted (protein, UniProt Q8C669 51-418, looked up, fragment)
chain: GVKPSTVHIACTPQAAKAISNKDQHSISYTLSRAQTVVVEYTHDSNTDMFQIGRSTESPIDFVVTDTVPGSQSNSDTQSVQSTISRFACRIICERSPPFTARIYAAGFDSSKNIFLGEKAAKWKTSDGQMDGLTTNGVLVMHPRNGFTEDSKPGIWREISVCGNVFSLRETRSAQQRGKMVEIETNQLQDGSLIDLCGATLLWRTAEGLSHTPTVKHLEALRQEINAARPQCPVGFNTLAFPSMKRKDVVDEKQPWVYLNCGHVHGYHNWGNKEERDGKDRECPMCRSVGPYVPLWLGCEAGFYVDAGPPTHAFSPCGHVCSEKTTAYWSQIPLPHGTHTFHAACPFCAHQLAGEQGYIRLIFQGPLD
modifications: FLAG tag
notes: murine Pellino-1-FLAG, N-terminal 50 amino acids deleted
B8: wild-type Pellino-2: wild-type Pellino-2 polypeptide expressed in COS cells; species not stated at the result (protein, UniProt Q9HAT8 1-420, looked up)
E3 ubiquitin-protein ligase …: MFSPGQEEHCAPNKEPVKYGELVVLGYNGALPNGDRGRRKSRFALYKRPKANGVKPSTVHVISTPQASKAISCKGQHSISYTLSRNQTVVVEYTHDKDTDMFQVGRSTESPIDFVVTDTISGSQNTDEAQITQSTISRFACRIVCDRNEPYTARIFAAGFDSSKNIFLGEKAAKWKNPDGHMDGLTTNGVLVMHPRGGFTEESQPGVWREISVCGDVYTLRETRSAQQRGKLVESETNVLQDGSLIDLCGATLLWRTADGLFHTPTQKHIEALRQEINAARPQCPVGLNTLAFPSINRKEVVEEKQPWAYLSCGHVHGYHNWGHRSDTEANERECPMCRTVGPYVPLWLGCEAGFYVDAGPPTHAFTPCGHVCSEKSAKYWSQIPLPHGTHAFHAACPFCATQLVGEQNCIKLIFQGPID
B9: dN99-FLAG: murine Pellino-1-FLAG, N-terminal 99 amino acids deleted (protein, UniProt Q8C669 100-418, looked up, fragment)
chain: FQIGRSTESPIDFVVTDTVPGSQSNSDTQSVQSTISRFACRIICERSPPFTARIYAAGFDSSKNIFLGEKAAKWKTSDGQMDGLTTNGVLVMHPRNGFTEDSKPGIWREISVCGNVFSLRETRSAQQRGKMVEIETNQLQDGSLIDLCGATLLWRTAEGLSHTPTVKHLEALRQEINAARPQCPVGFNTLAFPSMKRKDVVDEKQPWVYLNCGHVHGYHNWGNKEERDGKDRECPMCRSVGPYVPLWLGCEAGFYVDAGPPTHAFSPCGHVCSEKTTAYWSQIPLPHGTHTFHAACPFCAHQLAGEQGYIRLIFQGPLD
modifications: FLAG tag
notes: murine Pellino-1-FLAG, N-terminal 99 amino acids deleted
B10: dN230-FLAG: murine Pellino-1-FLAG, N-terminal 230 amino acids deleted (protein, UniProt Q8C669 231-418, looked up, fragment)
chain: VEIETNQLQDGSLIDLCGATLLWRTAEGLSHTPTVKHLEALRQEINAARPQCPVGFNTLAFPSMKRKDVVDEKQPWVYLNCGHVHGYHNWGNKEERDGKDRECPMCRSVGPYVPLWLGCEAGFYVDAGPPTHAFSPCGHVCSEKTTAYWSQIPLPHGTHTFHAACPFCAHQLAGEQGYIRLIFQGPLD
modifications: FLAG tag
notes: murine Pellino-1-FLAG, N-terminal 230 amino acids deleted

How the values were obtained:
[1] = tested on: Pellino-1 Cleavage and Relocation; experiment: Effect of protease and other inhibitors on PMA-induced Pellino-1 cleavage and relocation in COS7 cells; format: cell-based, monkey; settings: for Effect on Pellino-1 Cleavage and Relocation: COS7 cells treated with PMA
Procedure: In an effort to determine which protease might be involved in the regulation of Pellino-1 cleavage, COS7 cells transfected with a Pellino-1-expressing construct were treated with PMA together with inhibitors of different classes of proteinases as shown in Table 3 below.

[2] = tested on: NF-kB-dependent reporter gene; experiment: NF-kB-dependent reporter gene (luciferase) assay in transfected COS cells; format: cell-based, monkey; settings: for Effect on Reporter Gene: NF-kB-dependent reporter gene activity, form of murine Pellino-1 expressed in COS cells
Text: The murine Pellino-1 coding sequence DNA was fused, in frame at the 3′ end, to DNA encoding the FLAG epitope, followed by an in-frame stop codon. This construct was cloned into the mammalian expression vector pDC304 (identical to pDC302, described in U.S. Pat. No. 5,599,905, issued Feb. 4, 1997, except that the early splice region, consisting of splice donor and acceptor sites of the SV40 viral element, has been removed); and transfected into an IL-1-responsive line of COS-7 cells by the DEAE-dextran method.
In order to assay the effect of the Pellino-1-FLAG polypeptide and other forms of Pellino polypeptides on reporter gene activity, a method essentially as described in Born et al., 1998, J. Biol. Cheni. 273: 29445–29450 (which is incorporated by reference herein) can be used. As one example of this method, Cos7 cells were transiently transfected by the DEAE-dextran method as described (Cosman et al., 1984, Nature 312: 768–771, which is incorporated by reference herein), using 150 ng of the Pellino polypeptide expression construct and 700 ng of the reporter plasmid per 45,000 cells. Two days post-transfection, cells were stimulated with 10 ng/ml IL-1 or 40 ng/ml IL-18 (PeproTech, Inc.) for 4 hours. Cells were lysed and luciferase activity assessed using Reporter Lysis Buffer and Luciferase Assay Reagent (Promega Corp.). IL-8 promoter-reporter and NFkB-dependent reporter constructs may be used as reporter plasmids. Alternatively, the effect of Pellino polypeptide expression may be assayed in COS-1 cells. In an alternative preferred method, COS7 cells were grown in 12-well dishes as described above. The cells were transiently transfected with Pellino test plasmid, 50 ng of reporter plasmid DNA, and empty vector, as required, to a total of 1 micrograms of total DNA per well. After 24 hours, stimulating agents were added in a small amount (less than 0.5% final volume) of medium or dimethyl sulfoxide, and the cells were re-incubated for 5 hours. Cells were lysed in luciferase Reporter Lysis Buffer (Promega, Madison Wis., 0.25 ml per well) and luciferase activity was measured in a EG & G/Berthold luminometer after addition of Luciferase Assay Reagent (Promega) according to the supplier's instructions. All results were normalized to total protein content of the lysates as measured using the micro-BCA assay (Pierce, Rockford, Ill).

Molecule	Effect on Reporter Gene [2]	further results
Cc1ccc(S(=O)(=O)N[C@@H](Cc2ccccc2)C(=O)CCl)cc1 [TPCK]		Effect on Pellino-1 Cleavage and Relocation ([1]; inhibitor 20 microM): inhibition
CCCC[C@@H](C=O)NC(=O)[C@H](CC(C)C)NC(=O)[C@H](CC(C)C)NC(C)=O [ALLN] (Ac-Leu-Leu-[Nle]-aldehyde)		Effect on Pellino-1 Cleavage and Relocation ([1]; inhibitor 20 microM): none
CC(C)C[C@@H](C=O)NC(=O)[C@H](CC(C)C)NC(=O)[C@H](CC(C)C)NC(=O)OCc1ccccc1 [MG132] (Cbz-Leu-Leu-Leu-aldehyde)		Effect on Pellino-1 Cleavage and Relocation ([1]; inhibitor 10 microM): none
C[C@@H]1C[C@@H]([C@H](O)CC2CC(=O)NC(=O)C2)C(=O)[C@@H](C)C1 [Cycloheximide]		Effect on Pellino-1 Cleavage and Relocation ([1]; inhibitor 40 microM): inhibition; PMA-induced Pellino-1 cleavage (and relocation) ([1]; treatment of FLAG-Pellino-1-transfected COS7 cells with the inhibitor): largely prevented; also recorded: completely prevented
COC(=O)C[C@H](NC(=O)[C@H](C)NC(=O)[C@@H](NC(=O)OCc1ccccc1)C(C)C)C(=O)CF [Z-VAD-FMK] (Cbz-Val-Ala-Asp(OMe)-CH2F)		Effect on Pellino-1 Cleavage and Relocation ([1]; inhibitor 20 microM): none
B1	inactive	
B2	inactive	
B3	Stimulatory	
B4	Slightly	
B5	Stimulatory	
B6	inactive	
B7	Inhibitory	
B8		NFkB-dependent reporter gene activity ([2]; COS cells transfected with high concentrations of expressing construct): inhibitory effect
B9	Inhibitory	
B10	inactive	
